How the values were obtained:
MICA = test: ELISA for antibody binding to immobilized MICA extracellular domain (α1-α3 domains; alleles 002, 008, 009, 018); parameters: species or system human; conditions: immobilized antigen
Description: ELISA experiments were performed in DELFIA® 96-well plates (Perkin Elmer) or in Nunc Maxisorp 96-wells plates (Thermo Scientific). Wells were coated with antigens by overnight incubation at 4° C. using 100 ng of protein in 100 μl of carbonate buffer, […]. Plates were subsequently washed with 1× Tris-buffered saline-Tween buffer and incubated for 2 hours with 2% bovine serum albumin (BSA) in phosphate buffered saline (PBS), pH 7.4, or DELFIA® Assay Buffer (Perkin Elmer) at room temperature. MICA antibodies were used at 1 μg/ml, unless indicated otherwise. Isotype controls were MPC-11 (mIgG2b) and MOPC-21 (mIgG1), but only MPC-11 is shown in the figures, given that no differences were observed between these controls. Human isotype control was a recombinant human IgG1 antibody (BE0096, BioXcell). Biotinylated goat anti-mouse IgG (Poly4053—Biolegend) was used as the secondary antibody which was followed by streptavidin-Europium (Perkin Elmer) and DELFIA® Enhancement Solution (Perkin Elmer). Europium fluorescence was quantified using an EnVision® microplate reader (Perkin Elmer). The HRP-conjugated secondary antibodies were Novex® Goat anti-human IgG (A24470, Life Technologies), Goat anti-mouse IgG1 (1070-05), IgG2a (1080-08), IgG2b (1090-05), and IgG3 (1100-05), and Goat anti-mouse IgG (31430, Thermo Scientific). […] Absorbance was read at 450 nm.

[1] = tested on: short-term human melanoma cell lines; test: MICA/MICB shedding by short-term human melanoma cell lines; type: cell-based; conditions: 24-72 hours
Source text: A375, HCT-116, SK-N-SH, K562, A2058, B16F10, CT26, and Neuro-2a cell lines were all obtained from American Type Culture Collection (ATCC). HEPG2 and MDA-MB-231 cell lines were kindly provided by Drs. Chandan Sharma and Martin Hemler, Dana-Farber Cancer Institute, Boston. The EL4 and RMA-S cell lines were generous gifts from Dr. Mark Smyth, QIMR Berghofer Medical Research Institute, Herston, Australia. The short-term human melanoma cell lines CY.21A-S1, CY36-S1, and CY048-S were obtained from patients following surgical resection of metastatic lesions as previously described (27). All cell lines were mycoplasma free, as tested by MycoProbe Mycoplasma Detection Kit (R&D Systems). Human and murine cell lines were cultivated in RPMI-1640 or DMEM media, respectively, supplemented with 10% fetal bovine serum (FBS), 1× Glutamax® (Gibco), and 1× Penicillin and Streptomycin (Gibco). […]
Tumor cells (5×10^4 or 1×10^5 per well, depending on the cell line) were cultured for 24 to 72 hours in 96-well plates (flat-bottom plates for adherent cell lines, U-bottom plates for suspension cell lines). […] MICA or control antibodies were added at different concentrations, and shed MICA/B was then detected in supernatants by ELISA using the Human MICA ELISA kit (Ab59569, Abcam) or Human MICB DuoSet ELISA kit (DY1599, R&D Systems), using the procedures recommended by the manufacturers. […]

[2] = tested on: subcutaneous B16F10 tumors; test: Subcutaneous B16F10-MICA model; type: in vivo, mice (C57BL/6, Igh−/−)
Description: C57BL/6 mice were injected subcutaneously with 1×10^6 B16F10 cells that had been transduced with different lentiviral vectors (ZsGreen reporter). Five days later, treatment was initiated with 7C6-mIgG2a, 7C6-mIgG2b-DANA, or isotype control (C1184) antibodies (200 μg/mouse). Treatment was continued as indicated in the relevant figures. For antibody blockade, Igh^−/− mice were given 200 μg/mouse of anti-NKG2D (HMG2D) or control IgG (MOPC-21) on days −1, 0, 5, 9, 14, and 19. Mice were bled on day 9. Tumor size was monitored with a digital caliper and the tumor area was calculated by multiplying the two largest diameters. To minimize suffering, the end point was defined as a tumor size of 200 mm2.
C57BL/6 mice were injected subcutaneously with 1×10^6 B16F10 cells that had been transduced with different lentiviral vectors (ZsGreen reporter). Five days later, treatment was initiated with 7C6-mIgG2a, 7C6-mIgG2b-DANA, or isotype control (C1184) antibodies (200 μg/mouse). Treatment was continued as indicated in the relevant Figures. For antibody blockade, Igh^−/− mice were given 200 μg/mouse of anti-NKG2D (HMG2D) or control IgG (MOPC-21) on days −1, 0, 5, 9, 14, and 19. Mice were bled on day 9. Tumor size was monitored with a digital caliper and the area was calculated by multiplying the two largest diameters. To minimize suffering, the end point was defined as the time point when tumors reached a size of 200 mm^2.
Igh^−/− mice were injected subcutaneously with 1×10^6 B16F10-MICA cells that had been transduced with a ZsGreen-based lentiviral vector that drives MICA expression. On days 5, 7 and 9 after tumor cell inoculation, mice were treated with 200 μg 7C6-mIgG2a or isotype control antibodies. On days 7 and 14, sets of mice were euthanized and tumors were removed. Tumors were then mechanically dissociated to preserve MICA integrity on the cell surface. Next, Fc receptors were blocked using Mouse True Stain FcX (Biolegend). Cells were subsequently stained with a PE-conjugated anti-mouse IgG antibody (Poly4053, Biolegend). Cells were then washed and stained with APC-conjugated anti-MICAS antibody (6D4), PE-Cγ7-CD45.2 and Zombie NIR (all from Biolegend). Viable tumor cells were identified by flow cytometry based on size, ZsGreen fluorescence and absence of CD45.2 expression. Samples were examined using a Sony Spectral Analyzer or Beckman Coulter CytoFLEX, and data were analyzed by FlowJo.

B1: 7C6: monoclonal antibody from mice immunized with recombinant MICA α3 domain; parental mIgG2b; VH SEQ ID NO: 7, VL SEQ ID NO: 8 (antibody)
VH: QIQLVQSGPELKKPGETVKVSCKASGYMFTNYAMNWVKQAPEKGLKWMGWINTHTGDPTYADDFKGRIAFSLETSASTAYLQINNLKNEDTATYFCVRTYGNYAMDYWGQGTSVTVSSAKTTAPSVYPLAPVCGDTTGSSVTLGCLVKGYFPEPVTLTWNSGSLSSGVHTFPAVLQSDLYTLSSSVTVTSS
VL: DIQMTQTTSSLSASLGDRVTISCSASQDISNYLNWYQQKPDGTVKLLIYDTSILHLGVPSRFSGSGSGTDYSLTISNLEPEDIATYYCQQYSKFPRTFGGGTTLEIK
modifications: mAb 7C6 heavy chain amino acid sequence; mAb 7C6 light chain amino acid sequence
- binding to MICA full-length extracellular domain (MICA): also the full-length extracellular domain
- MICA and MICB shedding by short-term human melanoma cell lines [1]: inhibited MICA and MICB shedding
- subcutaneous tumor growth inhibition, Igh−/− versus wild-type mice ([2]; B16F10-MICA, 200 μg): inhibited growth of subcutaneous B16F10-MICA melanomas more effectively in B cell deficient mice
- therapeutic activity against subcutaneous tumors that secrete MICA or lack NKG2D ligands ([2]; Igh−/− mice): no therapeutic effect was observed
- therapeutic activity against subcutaneous tumors expressing full-length MICA or MICB ([2]; Igh−/− mice, treatment from day 5): restricted to subcutaneous tumors that expressed full-length MICA or MICB
- receptor requirement for inhibition of subcutaneous tumor growth ([2]; NKG2D blockade, DANA mutant): NKG2D and CD16 Fc receptors were also both required for inhibition of subcutaneous tumor growth
- clearance of secreted MICA protein (serum, day 9) ([2]; tumors secreting MICA): did not promote clearance of secreted MICA protein
- MICA and MICB shedding (serum, day 9) ([2]; tumors with full-length MICA or MICB): inhibited MICA and MICB shedding

From patent US12662540B2, “Compositions and methods for inhibition of MICA/B shedding” (DANA-FARBER CANCER INSTITUTE, INC., priority 2017, dated 2026)
